Assay results: patent US20190119358A1
*1 amine or outer side, *2 acyl side, *3 side chain or, on linkers, in order; H or OH if unused. Bridges are numbered along the chain shown (N, C = ends). Primed or numbered codes have the meaning given here. Where no end group is shown, it is not given here. [ ]: non-standard residue; d: D form. The star is where a group is joined. ξ: configuration not given here. DAPTZAC3 = (S)-3-(4-(3-acrylamidopropyl)-1H-1,2,3-triazol-1-yl)-2-aminopropanoic acid, C=CC(=O)NCCCc1cn(C[C@H](N[*:1])C(=O)[*:2])nn1; DAPTZAC2 = (S)-3-(4-(2-acrylamidoethyl)-1H-1,2,3-triazol-1-yl)-2-aminopropanoic acid, C=CC(=O)NCCc1cn(C[C@H](N[*:1])C(=O)[*:2])nn1; DAPTZAC1 = (S)-3-(4-(acrylamidomethyl)-1H-1,2,3-triazol-1-yl)-2-aminopropanoic acid, C=CC(=O)NCc1cn(C[C@H](N[*:1])C(=O)[*:2])nn1; ADTZPA″ = (S)-2-amino-3-(1-dodecyl-1H-1,2,3-triazol-4-yl)propanoic acid, CCCCCCCCCCCCn1cc(C[C@H](N[*:1])C(=O)[*:2])nn1; MORAC = (S)-5-acrylamido-2-(methylamino)pentanoic acid, C=CC(=O)NCCC[C@@H](C(=O)[*:2])N(C)[*:1]; DABAC1 = (S)-4-acrylamido-2-aminobutanoic acid, C=CC(=O)NCC[C@H](N[*:1])C(=O)[*:2]; m‑xylylene = m-xylylene thioether bridge between Cys; Trp(7-aza) = N[C@@H](Cc1c[nH]c2ncccc12)C(=O)O; NMePhe(4-F) = CN[C@@H](Cc1ccc(F)cc1)C(=O)O; ivDde = CC(C)CC(=C1C(=O)CC(C)(C)CC1=O)*; mXylylene = c1cc(C[*:1])cc(C[*:2])c1; Glutaryl = O=C(CCCC(=O)[*:2])[*:1]; dPhg = N[C@@H](C(=O)O)c1ccccc1; Chg = N[C@H](C(=O)O)C1CCCCC1; PEG4 = NCCOCCOCCOCCOCCC(=O)O; Phg = N[C@H](C(=O)O)c1ccccc1; Tle = CC(C)(C)[C@H](N)C(=O)O; ξPhg = NC(C(=O)O)c1ccccc1; NMeA = CN[C@@H](C)C(=O)O; Pra = C#CC[C@H](N)C(=O)O; Dab = NCC[C@H](N)C(=O)O; Nva = CCC[C@H](N)C(=O)O; Dap = NC[C@H](N)C(=O)O; PEG1 = NCCOCCC(=O)O; Sar = CNCC(=O)O

These binders were tested against GMPPNP-loaded H-Ras or GTP-loaded K-Ras (assay: FP competition, displacement of probe R4007 from Ras).

Row | Binder | IC50 [µM]
1 | Ac-[Nva]SY[Tle]A[DAPTZAC1][NMeA][ξPhg][Trp(7-aza)]Y[NMePhe(4-F)][Sar]S-NH2 [R4005] | 2.07
2 | Ac-[Nva]CY[Tle]KA[NMeA][dPhg][Trp(7-aza)]Y[NMePhe(4-F)][Sar]C-NH2 (linker 2-13 via mXylylene; SMILES CCC[C@H](NC(C)=O)C(=O)N[C@H]1CSCc2cccc(c2)CSC[C@@H](C(N)=O)NC(=O)CN(C)C(=O)[C@H](Cc2ccc(F)cc2)N(C)C(=O)[C@H](Cc2ccc(O)cc2)NC(=O)[C@H](Cc2c[nH]c3ncccc23)NC(=O)[C@@H](c2ccccc2)NC(=O)[C@H](C)N(C)C(=O)[C@H](C)NC(=O)[C@H](CCCCN)NC(=O)[C@H](C(C)(C)C)NC(=O)[C@H](Cc2ccc(O)cc2)NC1=O) [R4153] | 36.5
3 | Ac-[Nva]CY[Tle]K[dP][NMeA][Phg][Trp(7-aza)]Y[NMePhe(4-F)][Sar]C-NH2 (linker 2-13 via mXylylene; SMILES CCC[C@H](NC(C)=O)C(=O)N[C@H]1CSCc2cccc(c2)CSC[C@@H](C(N)=O)NC(=O)CN(C)C(=O)[C@H](Cc2ccc(F)cc2)N(C)C(=O)[C@H](Cc2ccc(O)cc2)NC(=O)[C@H](Cc2c[nH]c3ncccc23)NC(=O)[C@H](c2ccccc2)NC(=O)[C@H](C)N(C)C(=O)[C@H]2CCCN2C(=O)[C@H](CCCCN)NC(=O)[C@H](C(C)(C)C)NC(=O)[C@H](Cc2ccc(O)cc2)NC1=O) [R4144] | 1.96
4 | Ac-[Nva]CY[Tle]KH[NMeA][Chg][Trp(7-aza)]Y[NMePhe(4-F)][Sar]C-NH2 (linker 2-13 via mXylylene; SMILES CCC[C@H](NC(C)=O)C(=O)N[C@H]1CSCc2cccc(c2)CSC[C@@H](C(N)=O)NC(=O)CN(C)C(=O)[C@H](Cc2ccc(F)cc2)N(C)C(=O)[C@H](Cc2ccc(O)cc2)NC(=O)[C@H](Cc2c[nH]c3ncccc23)NC(=O)[C@H](C2CCCCC2)NC(=O)[C@H](C)N(C)C(=O)[C@H](Cc2c[nH]cn2)NC(=O)[C@H](CCCCN)NC(=O)[C@H](C(C)(C)C)NC(=O)[C@H](Cc2ccc(O)cc2)NC1=O) [R4149] | 6.26
5 | Ac-[Nva]SY[Tle]A[DAPTZAC2][NMeA][ξPhg][Trp(7-aza)]Y[NMePhe(4-F)][Sar]S-NH2 (also: places Phg, 7-azaTrp, NMe-4-F-Phe, Sar at 9, 10, 12, 13) [R4151] | 12.2
6 | Ac-[Nva]CY[Tle]KH[NMeA][Phg][Trp(7-aza)]Y[NMePhe(4-F)][Sar]C[PEG4][ADTZPA″]-NH2 (linker 2-13 via mXylylene) [R4147] | 5.19
7 | {Alexa Fluor 594}-[Nva]CY[Nva][Phg][NMePhe(4-F)]TP[Trp(7-aza)]C[Trp(7-aza)]EE-NH2 (linker 2-10 via m‑xylylene) [R4154] | 37.4
8 | Ac-[Nva]SY[Tle]A[DAPTZAC3][NMeA][ξPhg][Trp(7-aza)]Y[NMePhe(4-F)][Sar]S-NH2 (also: places Phg, 7-azaTrp, NMe-4-F-Phe, Sar at 9, 10, 12, 13) [R4148] | 6
9 | Ac-[Nva]CY[Tle]A[DABAC1][NMeA][Phg][Trp(7-aza)]Y[NMePhe(4-F)][Sar]C-NH2 (linker 2-13 via mXylylene; SMILES C=CC(=O)NCC[C@@H]1NC(=O)[C@H](C)NC(=O)[C@H](C(C)(C)C)NC(=O)[C@H](Cc2ccc(O)cc2)NC(=O)[C@@H](NC(=O)[C@H](CCC)NC(C)=O)CSCc2cccc(c2)CSC[C@@H](C(N)=O)NC(=O)CN(C)C(=O)[C@H](Cc2ccc(F)cc2)N(C)C(=O)[C@H](Cc2ccc(O)cc2)NC(=O)[C@H](Cc2c[nH]c3ncccc23)NC(=O)[C@H](c2ccccc2)NC(=O)[C@H](C)N(C)C1=O) [R4146] | 3.39
10 | Ac-[Nva]CY[Tle]K(4‑(dimethylamino)benzoyl‑2,3,5,6‑d4)H[NMeA][Phg][Trp(7-aza)]Y[NMePhe(4-F)][Sar]C-NH2 (linker 2-13 via mXylylene) [R4150] | 7.64
11 | Ac-[Nva]CA[Tle]KH[NMeA][Phg][Trp(7-aza)]Y[NMePhe(4-F)][Sar]C-NH2 (linker 2-13 via mXylylene; SMILES CCC[C@H](NC(C)=O)C(=O)N[C@H]1CSCc2cccc(c2)CSC[C@@H](C(N)=O)NC(=O)CN(C)C(=O)[C@H](Cc2ccc(F)cc2)N(C)C(=O)[C@H](Cc2ccc(O)cc2)NC(=O)[C@H](Cc2c[nH]c3ncccc23)NC(=O)[C@H](c2ccccc2)NC(=O)[C@H](C)N(C)C(=O)[C@H](Cc2c[nH]cn2)NC(=O)[C@H](CCCCN)NC(=O)[C@H](C(C)(C)C)NC(=O)[C@H](C)NC1=O) [R4152] | 28.3
12 | cyclo(Y[Tle]KH[NMeA][Phg][Trp(7-aza)]Y[NMePhe(4-F)][Sar][Pra]) (SMILES C#CC[C@@H]1NC(=O)CN(C)C(=O)[C@H](Cc2ccc(F)cc2)N(C)C(=O)[C@H](Cc2ccc(O)cc2)NC(=O)[C@H](Cc2c[nH]c3ncccc23)NC(=O)[C@H](c2ccccc2)NC(=O)[C@H](C)N(C)C(=O)[C@H](Cc2c[nH]cn2)NC(=O)[C@H](CCCCN)NC(=O)[C@H](C(C)(C)C)NC(=O)[C@H](Cc2ccc(O)cc2)NC1=O) [R4145] | 2.8

These reach a lower IC50. Values come first.

Row | IC50 [µM] | Binder
13 | 1.64 | Ac-[Nva]CY[Tle]KH[NMeA]A[Trp(7-aza)]Y[NMeA][Sar]CGGGCVIM (linker 2-13 via mXylylene) [R4143]
14 | 0.522 | cyclo([PEG1]Y[Tle]KH[NMeA][Phg][Trp(7-aza)]Y[NMePhe(4-F)][Sar][Pra]) (SMILES C#CC[C@@H]1NC(=O)CN(C)C(=O)[C@H](Cc2ccc(F)cc2)N(C)C(=O)[C@H](Cc2ccc(O)cc2)NC(=O)[C@H](Cc2c[nH]c3ncccc23)NC(=O)[C@H](c2ccccc2)NC(=O)[C@H](C)N(C)C(=O)[C@H](Cc2c[nH]cn2)NC(=O)[C@H](CCCCN)NC(=O)[C@H](C(C)(C)C)NC(=O)[C@H](Cc2ccc(O)cc2)NC(=O)CCOCCNC1=O) [R4139]
15 | 0.608 | Ac-[Nva]CY[Tle]A[Dab][NMeA][Phg][Trp(7-aza)]Y[NMePhe(4-F)][Sar]C-NH2 (linker 2-13 via mXylylene; SMILES CCC[C@H](NC(C)=O)C(=O)N[C@H]1CSCc2cccc(c2)CSC[C@@H](C(N)=O)NC(=O)CN(C)C(=O)[C@H](Cc2ccc(F)cc2)N(C)C(=O)[C@H](Cc2ccc(O)cc2)NC(=O)[C@H](Cc2c[nH]c3ncccc23)NC(=O)[C@H](c2ccccc2)NC(=O)[C@H](C)N(C)C(=O)[C@H](CCN)NC(=O)[C@H](C)NC(=O)[C@H](C(C)(C)C)NC(=O)[C@H](Cc2ccc(O)cc2)NC1=O) [R4140]
16 | 1.25 | Ac-[Nva]CY[Tle]AH[MORAC][Phg][Trp(7-aza)]Y[NMePhe(4-F)][Sar]C-NH2 (linker 2-13 via mXylylene; SMILES C=CC(=O)NCCC[C@H]1C(=O)N[C@@H](c2ccccc2)C(=O)N[C@@H](Cc2c[nH]c3ncccc23)C(=O)N[C@@H](Cc2ccc(O)cc2)C(=O)N(C)[C@@H](Cc2ccc(F)cc2)C(=O)N(C)CC(=O)N[C@H](C(N)=O)CSCc2cccc(c2)CSC[C@H](NC(=O)[C@H](CCC)NC(C)=O)C(=O)N[C@@H](Cc2ccc(O)cc2)C(=O)N[C@@H](C(C)(C)C)C(=O)N[C@@H](C)C(=O)N[C@@H](Cc2c[nH]cn2)C(=O)N1C) [R4142]
17 | 0.461 | Glutaryl-[Nva]CY[Tle]K(ivDde)H[NMeA][Phg][Trp(7-aza)]Y[NMePhe(4-F)][Sar]C-NH2 (linker 2-13 via m‑xylylene) [R4138]
18 | 0.695 | Ac-[Nva]CY[Tle]A[Dap][NMeA][Phg][Trp(7-aza)]Y[NMePhe(4-F)][Sar]C-NH2 (linker 2-13 via mXylylene; SMILES CCC[C@H](NC(C)=O)C(=O)N[C@H]1CSCc2cccc(c2)CSC[C@@H](C(N)=O)NC(=O)CN(C)C(=O)[C@H](Cc2ccc(F)cc2)N(C)C(=O)[C@H](Cc2ccc(O)cc2)NC(=O)[C@H](Cc2c[nH]c3ncccc23)NC(=O)[C@H](c2ccccc2)NC(=O)[C@H](C)N(C)C(=O)[C@H](CN)NC(=O)[C@H](C)NC(=O)[C@H](C(C)(C)C)NC(=O)[C@H](Cc2ccc(O)cc2)NC1=O) [R4141]
